Molecular target: Fhb7
Assay: crystal structure

Substance: Fhb7 (enzyme)
- stoichiometry N: 2
